Here are results for four variants from IntAct's records for PubMed 18775314.

B1: Vesicle-associated membrane protein 7 (Homo sapiens), P51809 (parent)
chain: MAILFAVVARGTTILAKHAWCGGNFLEVTEQILAKIPSENNKLTYSHGNYLFHYICQDRIVYLCITDDDFERSRAFNFLNEIKKRFQTTYGSRAQTALPYAMNSEFSSVLAAQLKHHSENKGLDKVMETQAQVDELKGIMVRNIDLVAQRGERLELLIDKTENLVDSSVTFKTTSRNLARAMCMKNLKLTIIIIIVSIVFIYIIVSPLCGGFTWPSCVKK
partner: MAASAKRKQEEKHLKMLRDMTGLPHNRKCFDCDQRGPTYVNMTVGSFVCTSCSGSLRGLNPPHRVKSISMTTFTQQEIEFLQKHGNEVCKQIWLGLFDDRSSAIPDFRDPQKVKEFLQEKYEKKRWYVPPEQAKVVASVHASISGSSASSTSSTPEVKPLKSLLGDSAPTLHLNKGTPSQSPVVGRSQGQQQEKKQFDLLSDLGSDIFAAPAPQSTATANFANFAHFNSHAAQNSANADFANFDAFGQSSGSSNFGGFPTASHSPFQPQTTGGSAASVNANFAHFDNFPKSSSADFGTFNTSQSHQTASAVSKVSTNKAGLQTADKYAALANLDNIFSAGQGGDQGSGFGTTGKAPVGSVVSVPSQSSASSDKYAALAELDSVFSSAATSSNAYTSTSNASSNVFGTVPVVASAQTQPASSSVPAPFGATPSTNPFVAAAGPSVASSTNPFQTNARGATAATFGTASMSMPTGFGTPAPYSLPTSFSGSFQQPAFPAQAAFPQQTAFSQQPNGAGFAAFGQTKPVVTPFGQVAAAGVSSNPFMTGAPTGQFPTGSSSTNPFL
B2: Arf-GAP domain and FG repeat-containing protein 1 (Homo sapiens), P52594 (parent)
chain: B1 partner

Variants of B1 are the subject of the first assay. Particulars: with agfg1_human AGFG1, P52594.
Turning to MAILFAVVARGTTILAKHAWCGGNFLEVTEQILAKIPSENNKSTSSHGNYLFHYICQDRIVYLCITDDDFERSRAFNFLNEIKKRFQTTYGSRAQTALPYAMNSEFSSVLAAQLKHHSENKGLDKVMETQAQVDELKGIMVRNIDLVAQRGERLELLIDKTENLVDSSVTFKTTSRNLARAMCMKNLKLTIIIIIVSIVFIYIIVSPLCGGFTWPSCVKK [L43S;Y45S], the “effect of a mutation on the interaction” value is listed as “decreasing interaction”.

The variants in the next assay derive from B1. Conditions: with agfg1_human AGFG1, P52594. The source holds these as a separate data set.
Consider MAILFAVVARGTTILAKHAWCGGNFLEVTEQILAKIPSENNKSTSSHGNYLFHYICQDRIVYLCITDDDFERSRAFNFLNEIKKRFQTTYGSRAQTALPYAMNSEFSSVLAAQLKHHSENKGLDKVMETQAQVDELKGIMVRNIDLVAQRGERLELLIDKTENLVDSSVTFKTTSRNLARAMCMKNLKLTIIIIIVSIVFIYIIVSPLCGGFTWPSCVKK [L43S;Y45S], for which the “effect of a mutation on the interaction” value is reported as “decreasing interaction”.

In the next assay the parent is B2. Conditions: with vamp7_human VAMP7, P51809.
On to MAASAKRKQEEKHLKMLRDMTGLPHNRKCFDCDQRGPTYVNMTVGSFVCTSCSGSLRGLNPPHRVKSISMTTFTQQEIEFLQKHGNEVCKQIWLGLFDDRSSAIPDFRDPQKVKEFLQEKYEKKRWYVPPEQAKVVASVHASISGSSASSTSSTPEVKPSKSSLGDSAPTLHLNKGTPSQSPVVGRSQGQQQEKKQFDLLSDLGSDIFAAPAPQSTATANFANFAHFNSHAAQNSANADFANFDAFGQSSGSSNFGGFPTASHSPFQPQTTGGSAASVNANFAHFDNFPKSSSADFGTFNTSQSHQTASAVSKVSTNKAGLQTADKYAALANLDNIFSAGQGGDQGSGFGTTGKAPVGSVVSVPSQSSASSDKYAALAELDSVFSSAATSSNAYTSTSNASSNVFGTVPVVASAQTQPASSSVPAPFGATPSTNPFVAAAGPSVASSTNPFQTNARGATAATFGTASMSMPTGFGTPAPYSLPTSFSGSFQQPAFPAQAAFPQQTAFSQQPNGAGFAAFGQTKPVVTPFGQVAAAGVSSNPFMTGAPTGQFPTGSSSTNPFL [L160S;L163S], for which the “effect of a mutation on the interaction” value is “decreasing interaction”.

On to MAASAKRKQEEKHLKMLRDMTGLPHNRKCFDCDQRGPTYVNMTVGSFVCTSCSGSLRGLNPPHRVKSISMTTFTQQEIEFLQKHGNEVCKQIWLGLFDDRSSAIPDFRDPQKVKEFLQEKYEKKRWYVPPEQAKVVASVHASISGSSASSTSSTPEVKPLKSLLGDSAPTSHSNKGTPSQSPVVGRSQGQQQEKKQFDLLSDLGSDIFAAPAPQSTATANFANFAHFNSHAAQNSANADFANFDAFGQSSGSSNFGGFPTASHSPFQPQTTGGSAASVNANFAHFDNFPKSSSADFGTFNTSQSHQTASAVSKVSTNKAGLQTADKYAALANLDNIFSAGQGGDQGSGFGTTGKAPVGSVVSVPSQSSASSDKYAALAELDSVFSSAATSSNAYTSTSNASSNVFGTVPVVASAQTQPASSSVPAPFGATPSTNPFVAAAGPSVASSTNPFQTNARGATAATFGTASMSMPTGFGTPAPYSLPTSFSGSFQQPAFPAQAAFPQQTAFSQQPNGAGFAAFGQTKPVVTPFGQVAAAGVSSNPFMTGAPTGQFPTGSSSTNPFL [L171S;L173S], for which the “effect of a mutation on the interaction” value is on record as “decreasing interaction”.

Turning to MAASAKRKQEEKHLKMLRDMTGLPHNRKCFDCDQRGPTYVNMTVGSFVCTSCSGSLRGLNPPHRVKSISMTTFTQQEIEFLQKHGNEVCKQIWLGLFDDRSSAIPDFRDPQKVKEFLQEKYEKKRWYVPPEQAKVVASVHASISGSSASSTSSTPEVKPLKSSSGDSAPTLHLNKGTPSQSPVVGRSQGQQQEKKQFDLLSDLGSDIFAAPAPQSTATANFANFAHFNSHAAQNSANADFANFDAFGQSSGSSNFGGFPTASHSPFQPQTTGGSAASVNANFAHFDNFPKSSSADFGTFNTSQSHQTASAVSKVSTNKAGLQTADKYAALANLDNIFSAGQGGDQGSGFGTTGKAPVGSVVSVPSQSSASSDKYAALAELDSVFSSAATSSNAYTSTSNASSNVFGTVPVVASAQTQPASSSVPAPFGATPSTNPFVAAAGPSVASSTNPFQTNARGATAATFGTASMSMPTGFGTPAPYSLPTSFSGSFQQPAFPAQAAFPQQTAFSQQPNGAGFAAFGQTKPVVTPFGQVAAAGVSSNPFMTGAPTGQFPTGSSSTNPFL [L163S;L164S], the “effect of a mutation on the interaction” value is given as “decreasing interaction”.

The variants in another assay derive from B2. Particulars: with vamp7_human VAMP7, P51809. This is another data set of the same source.
Regarding MAASAKRKQEEKHLKMLRDMTGLPHNRKCFDCDQRGPTYVNMTVGSFVCTSCSGSLRGLNPPHRVKSISMTTFTQQEIEFLQKHGNEVCKQIWLGLFDDRSSAIPDFRDPQKVKEFLQEKYEKKRWYVPPEQAKVVASVHASISGSSASSTSSTPEVKPLKSSSGDSAPTLHLNKGTPSQSPVVGRSQGQQQEKKQFDLLSDLGSDIFAAPAPQSTATANFANFAHFNSHAAQNSANADFANFDAFGQSSGSSNFGGFPTASHSPFQPQTTGGSAASVNANFAHFDNFPKSSSADFGTFNTSQSHQTASAVSKVSTNKAGLQTADKYAALANLDNIFSAGQGGDQGSGFGTTGKAPVGSVVSVPSQSSASSDKYAALAELDSVFSSAATSSNAYTSTSNASSNVFGTVPVVASAQTQPASSSVPAPFGATPSTNPFVAAAGPSVASSTNPFQTNARGATAATFGTASMSMPTGFGTPAPYSLPTSFSGSFQQPAFPAQAAFPQQTAFSQQPNGAGFAAFGQTKPVVTPFGQVAAAGVSSNPFMTGAPTGQFPTGSSSTNPFL [L163S;L164S], the “effect of a mutation on the interaction” value was “decreasing interaction”.
